Here are results for three substances from paper PMC10606924, “Interactions of Nucleosomes with Acidic Patch-Binding Peptides: A Combined Structural Bioinformatics, Molecular Modeling, Fluorescence Polarization, and Single-Molecule FRET Study” (International Journal of Molecular Sciences, 2023).

In data set [1] the target is nucleosome (H. sapiens canonical histone octamer on 147 bp Widom 603 DNA) (H. sapiens) (UniProt P04908). The experiment in a line: fluorescence polarisation; 100 nM FAM-LANA_(1-22) as tracer, nucleosome concentration varied by two-fold serial dilution, 30 min at +4 C; 10 mM TrisHCl pH 8.0, 200 uM EDTA, 5 mM 2-mercaptoethanol, 10 mM NaCl; simple direct binding model with identical, non-interacting sites.

The subject of data set [2] is FAM-LANA1-22 (Kaposi's sarcoma-associated herpesvirus). The data set can be described thus: fluorescence polarization. To be noted: FP: 10 mM Tris-HCl pH 8.0, 0.2 mM EDTA, 5 mM 2-mercaptoethanol, 10 mM NaCl, 30 min incubation at 4 C, EMSA: 6% PAGE, 10 mM HEPES-Na pH 8.0, 0.2 mM EDTA.
The subject of data set [3] is Cy3/Cy5-labeled mononucleosomes (603 DNA, 147 bp). The experiment in a line: Single-molecule FRET (spFRET) of nucleosome-peptide interactions. It is filed as biochemical, H. sapiens. To be noted: 10 μM peptide. An excerpt:
Non-fluorescently labeled nuclesomal DNA fragments were obtained as follows. pUC57 plasmids containing eight repeats of the high-affinity 147 bp Widom 603 sequence were amplified in E. coli XL-10 stain and purified via alkaline lysis (see details in Supplementary Materials and Methods). The Widom 603 fragments were released via cleavage with EcoRV and separated from parent plasmid with polyethylene glycol precipitation in order to clear the vector backbone as described in [86]. Nucleosomal DNA fragments fluorescently labeled at the 35 and 112 bp positions were obtained following established protocols. […]
NCPs were reconstituted by mixing 147 bp Widom 603 DNA and histone octamers at a 1:1.15 molar ratio. […] Fluorescently labeled nucleosomes were detected by in-gel FRET using a Typhoon scanner (GE Healthcare, Chicago, IL, USA) with excitation at 532 nm laser and emission at 670 nm (FRET between Cy3 and Cy5) or 580 nm (Cy3 signal) (Supplementary Figure S5).
Single-particle FRET measurements were conducted with LSM710-Confocor3 laser scanning confocal microscope (Carl Zeiss, Jena, Germany) as described previously. […] To evaluate the level of background signal and reveal fluorescence bursts, spFRET data were analyzed using the FretBursts version 0.7.1 software. […]

Entries after “also recorded” stand apart in the source; their conditions may differ.

For the substance “FAM-labeled LANA_(1-22) peptide (from UniProt Q9QR71 1-22)”, in data set [1], the Kd is 400 nM.
Turning to Widom 603 nucleosome, the Kd in data set [2] was determined as 400 nM.
In the case of “PNVRRSNRIRLKPLEYWRGERIDYQ [CENP-Cmotif, fragment of CENP-C protein (amino acids 710–734) from R. norvegicus]”, the “shift of EPR value distribution” value in data set [3] (1 nM nucleosomes) is reported as “shift of the EPR value distribution towards higher EPR values; also recorded: makes nucleosomes, on average, more compact”. The “effect on average nucleosome compactness, compared with LANA1-22” value in data set [3] (spFRET) is given as “higher than that of LANA1-22; also recorded: makes nucleosomes more compact than LANA1-22, on average”.
